{"source": "paper PMC3110666", "about": "(Nature cell biology, 2011)", "proteins": {"B1": {"name": "G6PD of MEF cells (enzyme, mouse (endogenous in MEF), UniProt Q00612 1-515, looked up)", "chain": "MAEQVALSRTQVCGILREELYQGDAFHQADTHIFIIMGASGDLAKKKIYPTIWWLFRDGLLPEDTFIVGYARSRLTVDDIRKQSEPFFKATPEERPKLEEFFARNSYVAGQYDDAASYKHLNSHMNALHQGMQANRLFYLALPPTVYEAVTKNIQETCMSQTGWNRIIVEKPFGRDLQSSNQLSNHISSLFREDQIYRIDHYLGKEMVQNLMVLRFANRIFGPIWNRDNIACVILTFKEPFGTEGRGGYFDEFGIIRDVMQNHLLQMLCLVAMEKPATTGSDDVRDEKVKVLKCISEVETDNVVLGQYVGNPNGEGEAANGYLDDPTVPHGSTTATFAAAVLYVENERWDGVPFILRCGKALNERKAEVRLQFRDVAGDIFHQQCKRNELVIRVQPNEAVYTKMMTKKPGMFFNPEESELDLTYGNRYKNVKLPDAYERLILDVFCGSQMHFVRSDELREAWRIFTPLLHKIDREKPQPIPYVYGSRGPTEADELMKRVGFQYEGTYKWVNPHKL"}}, "target": "the molecule itself", "test": "cross-linking"}
{"protein": "B1", "values": [{"measurement": "stoichiometry N", "result": 2}]}
